# Residue numbers refer to the chain shown, from its start.
# T1: ZM6.22v2(J5) (artificial)
# T1 chain: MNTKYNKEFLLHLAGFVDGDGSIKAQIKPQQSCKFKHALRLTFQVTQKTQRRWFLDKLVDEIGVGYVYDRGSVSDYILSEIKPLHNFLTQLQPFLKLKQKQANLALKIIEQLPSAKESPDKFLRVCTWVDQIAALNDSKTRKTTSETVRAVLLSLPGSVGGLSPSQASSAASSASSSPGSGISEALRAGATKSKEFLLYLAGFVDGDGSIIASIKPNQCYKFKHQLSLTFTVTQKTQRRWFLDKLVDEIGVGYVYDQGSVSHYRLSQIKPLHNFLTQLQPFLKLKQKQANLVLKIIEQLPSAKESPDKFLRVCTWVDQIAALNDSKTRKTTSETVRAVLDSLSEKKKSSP
# T2: ZM6.22v2(I8) (artificial)
# T2 chain: T1 chain with A105V, V129A, L153D
# T3: ZM6.3(H1) (artificial)
# T3 chain: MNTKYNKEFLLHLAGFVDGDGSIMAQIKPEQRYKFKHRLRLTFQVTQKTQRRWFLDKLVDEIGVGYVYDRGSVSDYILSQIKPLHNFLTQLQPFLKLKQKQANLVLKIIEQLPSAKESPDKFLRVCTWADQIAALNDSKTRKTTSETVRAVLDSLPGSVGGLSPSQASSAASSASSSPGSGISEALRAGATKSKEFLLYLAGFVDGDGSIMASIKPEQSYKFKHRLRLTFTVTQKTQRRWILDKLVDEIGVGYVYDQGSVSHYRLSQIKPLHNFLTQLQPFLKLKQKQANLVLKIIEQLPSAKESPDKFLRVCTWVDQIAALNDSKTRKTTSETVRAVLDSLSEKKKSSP
# T4: ZM6.3(H6) (artificial)
# T4 chain: T3 chain with M24K, F54I, R124E, A129V, I241F, R311E
# T5: ZM6.3(G1) (artificial)
# T5 chain: T3 chain with H12Y, M24K, Q50R, F54I, Q80R, R124E, A129V, I241F, R311E
# B1: ZM6.22v2 recognition site (dsDNA)
# DNA 1: ATTGCTCTCTCACATACTTTTA
# DNA 2: TAAAAGTATGTGAGAGAGCAAT
# B2: ZM6.3 recognition site (dsDNA)
# DNA 1: CAGGCTCTCGTAAATGCGCCTG
# DNA 2: CAGGCGCATTTACGAGAGCCTG
# Legend:
# Details in all cases: tags: NLS, 6xHis
# ZM6.22v2(J5) = molecular target: T1, ZM6.22v2(J5); test: cell_activity; yeast 37 C; 30 C: 0.5
# Description: (§1) A 3 mL culture of selective media (MP Biomedical) was inoculated with a single colony of the yeast screening strain and grown at 30° C. overnight. On the following day, a 50 ml YPD culture (MP Biomedical) was started with 2 ml of the overnight culture and grown at 30° C. overnight. On the following day, the cells were harvested by centrifugation at 4000 rpm. The cells were resuspended in 100 ml ice cold water and centrifuged again. The cells were then washed in 1.2 M sorbitol, followed by treatment with 2 ml of 10 mM Tris pH 8.0, 1 mM EDTA, 100 mM Lithium acetate, 10 mM DTT, 0.6M sorbitol for 30 minutes at 30° C. with shaking. The cells were recovered by centrifugation, washed in 40 ml 1.2M sorbitol and finally resuspended in 250 microliters of 1.2M sorbitol. 50 microliter aliquots were transferred to test tubes on ice. Up to 5 microliters of DNA (100-500 nanograms) were added. The suspension was transferred to a 0.2 cm electroporation cuvette, on ice. Electroporation was performed with a pulse charge at 1.5 kV, 200 ohms, 25 microF (pulse time of 5 milliseconds). 1 mL YPD media (MP Biomedical) was added and the cells were allowed to recover at 30° C. for 1-2 hr. The cells were centrifuged, resuspended in 100 uL 1M sorbitol and plated on selective media lacking leucine and containing 2% galactose. The resulting yeast colonies were incubated at various temperatures ranging from 22 to 37 degrees Celsius for 7-10 days. I-CreI and meganucleases derived from it have maximal activity at or above 37 degrees Celsius. Screening was performed at a range of temperatures from 22 to 37 degrees in order to observe increases in activity at lower temperatures which are relevant to certain biological systems (eg. plant cells, plant cell cultures, etc). At that time the red/white sectoring phenotype, indicative of meganuclease activity was observed. Colonies with increased white sectoring over the parental meganuclease (indicating colonies expressing a meganuclease with increased meganuclease activity), also referred to as “hits” and sometimes completely white, were isolated for further analysis.
# (§2) A total of 13 ZM6.22v2 variants with increased activity were confirmed in the yeast system (as described in Example 6). Increased activity was observed across a range of temperatures: 28 degrees Celsius, 30 degrees Celsius and 37 degrees Celsius, as shown in Table 16.
# ZM6.22v2(I8) = molecular target: T2, ZM6.22v2(I8); test: cell_activity; yeast 37 C; 30 C: 0.5
# Description: as §1, §2
# ZM6.3(H1) = molecular target: T3, ZM6.3(H1); test: cell_activity; yeast 37 C; 28 C: 4
# Description: as §1
# (§3) A total of 15 Zm6.3 variants with increased activity were confirmed in the yeast system (as described in Example 6). Increased activity was observed across a range of temperatures: 28 degrees Celsius, 30 degrees Celsius and 37 degrees Celsius, as shown in Table 15.
# ZM6.3(H6) = molecular target: T4, ZM6.3(H6); test: cell_activity; yeast 37 C; 28 C: 4
# Description: as §1, §3
# ZM6.3(G1) = molecular target: T5, ZM6.3(G1); test: cell_activity; yeast 37 C; 28 C: 4
# Description: as §1, §3
Binder,activity (ZM6.22v2(J5)) [score 0-4],activity (ZM6.22v2(I8)) [score 0-4],activity (ZM6.3(H1)) [score 0-4],activity (ZM6.3(H6)) [score 0-4],activity (ZM6.3(G1)) [score 0-4]
B1,4,2.5,–,–,–
B2,–,–,4,4,4
